Laboratory results from article PMC11079029, “Intramolecular autoinhibition regulates the selectivity of PRPF40A tandem WW domains for proline-rich motifs” (Nature Communications, 2024).
Values joined by “and” are separate entries in the source; they are usually repeats but may differ in a detail not shown here. Equal values may be shown once.

B1: GB1-polyproline peptide P25 (peptide)
chain: GAMSGSPPPPPPPPPPPPPPPPPPPPPPPPPSGSN
notes: common N-terminal residues after the TEV site (TEVsite-GAMSGS-peptide-SGSN); 25 consecutive prolines; common C-terminal residues; pET24 vector with 6xHis, GB1 and TEV site as N-terminal cassette, not cleaved; also called polyproline length 25; source: E. coli BL21(DE3), purified (Ni-NTA, SEC); not shown: GB1, N-terminal, kept
B2: GB1-SF1 Pro CD (residues 539-639) (domain or fragment, UniProt Q15637 539-639, looked up)
chain: GSIPPWQQQQAAAAASPGAPQMQGNPTMVPLPPGVQPPLPPGAPPPPPPPPPGSAGMMYAPPPPPPPPMDPSNFVTMMGMGVAGMPPFGMPPAPPPPPPQN
notes: splicing factor 1 (SF1), residues 539-639; His6-GB1-TEV site cassette of the pET24 vector, not cleaved; source: E. coli BL21(DE3), purified (Ni-NTA, SEC); not shown: GB1, N-terminal, kept
B3: GB1-SF1 Pro BCD (residues 468-639) (domain or fragment, UniProt Q15637 468-639, looked up)
chain: GMMPPPPMGMMPPPPPPPSGQPPPPPSGPLPPWQQQQQQPPPPPPPSSSMASSTPLPWQQNTTTTTTSAGTGSIPPWQQQQAAAAASPGAPQMQGNPTMVPLPPGVQPPLPPGAPPPPPPPPPGSAGMMYAPPPPPPPPMDPSNFVTMMGMGVAGMPPFGMPPAPPPPPPQN
notes: splicing factor 1 (SF1), residues 468-639; His6-GB1-TEV site cassette of the pET24 vector, not cleaved; source: E. coli BL21(DE3), purified (Ni-NTA, SEC); not shown: GB1, N-terminal, kept
B4: GB1-SF3A1 C-ter Pro (residues 552-683) (domain or fragment, UniProt Q15459 552-683, looked up)
chain: EIPQQPPPPSSATNIPSSAPPITSVPRPPTMPPPVRTTVVSAVPVMPRPPMASVVRLPPGSVIAPMPPIIHAPRINVVPMPPSAPPIMAPRPPPMIVPTAFVPAPPVAPVPAPAPMPPVHPPPPMEDEPTSK
notes: His6-GB1-TEV site cassette of the pET24 vector, not cleaved; source: E. coli BL21(DE3), purified (Ni-NTA, SEC); not shown: GB1, N-terminal, kept
B5: GB1-SF1 Pro ABCD (residues 410-639) (domain or fragment, UniProt Q15637 410-639, looked up)
chain: GHPMQHNPNGPPPPWMQPPPPPMNQGPHPPGHHGPPPMDQYLGSTPVGSGVYRLHQGKGMMPPPPMGMMPPPPPPPSGQPPPPPSGPLPPWQQQQQQPPPPPPPSSSMASSTPLPWQQNTTTTTTSAGTGSIPPWQQQQAAAAASPGAPQMQGNPTMVPLPPGVQPPLPPGAPPPPPPPPPGSAGMMYAPPPPPPPPMDPSNFVTMMGMGVAGMPPFGMPPAPPPPPPQN
notes: splicing factor 1 (SF1), residues 410-639, the complete proline-rich C-terminal region; His6-GB1-TEV site cassette of the pET24 vector, not cleaved; source: E. coli BL21(DE3), purified (Ni-NTA, SEC); not shown: GB1, N-terminal, kept
B6: GB1-SF3A1 Middle Pro (residues 364-413) (domain or fragment, UniProt Q15459 364-413, looked up)
chain: EGQKVPPPPETPMPPPLPPTPDQVIVRKDYDPKASKPLPPAPAPDEYLVS
notes: SF3A1 (U2 snRNP component), proline-rich region, residues 364-413; His6-GB1-TEV site cassette of the pET24 vector, not cleaved; source: E. coli BL21(DE3), purified (Ni-NTA, SEC); not shown: GB1, N-terminal, kept
B7: GB1-SF1 Pro BC (residues 468-594) (domain or fragment, UniProt Q15637 468-594, looked up)
chain: GMMPPPPMGMMPPPPPPPSGQPPPPPSGPLPPWQQQQQQPPPPPPPSSSMASSTPLPWQQNTTTTTTSAGTGSIPPWQQQQAAAAASPGAPQMQGNPTMVPLPPGVQPPLPPGAPPPPPPPPPGSAG
notes: splicing factor 1 (SF1), residues 468-594; His6-GB1-TEV site cassette of the pET24 vector, not cleaved; also called SF1 BC; source: E. coli BL21(DE3), purified (Ni-NTA, SEC); not shown: GB1, N-terminal, kept
B8: GB1-SF1 Pro CD (residues 539-639) (domain or fragment, UniProt Q15637 539-639, looked up)
chain: B2 chain
notes: SF1 (splicing factor 1) residues 539-639; pET24 vector with 6xHis, GB1 and TEV site as N-terminal cassette, not cleaved; source: E. coli BL21(DE3), purified (Ni-NTA, SEC); not shown: GB1, N-terminal, kept
B9: GB1-SF1 Pro D (residues 594-639) (domain or fragment, UniProt Q15637 594-639, looked up)
chain: GMMYAPPPPPPPPMDPSNFVTMMGMGVAGMPPFGMPPAPPPPPPQN
notes: SF1 (splicing factor 1) residues 594-639, the very C-terminal region; pET24 vector with 6xHis, GB1 and TEV site as N-terminal cassette, not cleaved; source: E. coli BL21(DE3), purified (Ni-NTA, SEC); not shown: GB1, N-terminal, kept
B10: GB1-SF1 Pro C (residues 539-594) (domain or fragment, UniProt Q15637 539-594, looked up)
chain: GSIPPWQQQQAAAAASPGAPQMQGNPTMVPLPPGVQPPLPPGAPPPPPPPPPGSAG
notes: SF1 (splicing factor 1) residues 539-594; pET24 vector with 6xHis, GB1 and TEV site as N-terminal cassette, not cleaved; source: E. coli BL21(DE3), purified (Ni-NTA, SEC); not shown: GB1, N-terminal, kept
B11: GB1-SF1 Pro BCD (residues 468-639) (domain or fragment, UniProt Q15637 468-639, looked up)
chain: B3 chain
notes: SF1 (splicing factor 1) residues 468-639; pET24 vector with 6xHis, GB1 and TEV site as N-terminal cassette, not cleaved; source: E. coli BL21(DE3), purified (Ni-NTA, SEC); not shown: GB1, N-terminal, kept
B12: GB1-SF3A1 C-ter Pro (residues 552-683) (domain or fragment, UniProt Q15459 552-683, looked up)
chain: B4 chain
notes: pET24 vector with 6xHis, GB1 and TEV site as N-terminal cassette, not cleaved; source: E. coli BL21(DE3), purified (Ni-NTA, SEC); not shown: GB1, N-terminal, kept
B13: GB1-SF1 Pro ABCD (residues 410-639) (domain or fragment, UniProt Q15637 410-639, looked up)
chain: B5 chain
notes: SF1 (splicing factor 1) residues 410-639, the complete proline-rich C-terminal region; pET24 vector with 6xHis, GB1 and TEV site as N-terminal cassette, not cleaved; also called complete C-terminal region of SF1; source: E. coli BL21(DE3), purified (Ni-NTA, SEC); not shown: GB1, N-terminal, kept
B14: GB1-SF1 Pro B (residues 468-539) (domain or fragment, UniProt Q15637 468-539, looked up)
chain: GMMPPPPMGMMPPPPPPPSGQPPPPPSGPLPPWQQQQQQPPPPPPPSSSMASSTPLPWQQNTTTTTTSAGTG
notes: SF1 (splicing factor 1) residues 468-539 of the proline-rich C-terminal region; pET24 vector with 6xHis, GB1 and TEV site as N-terminal cassette, not cleaved; source: E. coli BL21(DE3), purified (Ni-NTA, SEC); not shown: GB1, N-terminal, kept
B15: GB1-SF1 Pro A (residues 410-468) (domain or fragment, UniProt Q15637 410-468, looked up)
chain: GHPMQHNPNGPPPPWMQPPPPPMNQGPHPPGHHGPPPMDQYLGSTPVGSGVYRLHQGKG
notes: SF1 (splicing factor 1) residues 410-468 of the proline-rich C-terminal region; pET24 vector with 6xHis, GB1 and TEV site as N-terminal cassette, not cleaved; source: E. coli BL21(DE3), purified (Ni-NTA, SEC); not shown: GB1, N-terminal, kept
B16: GB1-SF3A1 Middle Pro (residues 364-413) (domain or fragment, UniProt Q15459 364-413, looked up)
chain: B6 chain
notes: SF3A1 residues 364-413, proline-rich region with a PPLP motif; pET24 vector with 6xHis, GB1 and TEV site as N-terminal cassette, not cleaved; also called SF3A1 region (364-413); source: E. coli BL21(DE3), purified (Ni-NTA, SEC); not shown: GB1, N-terminal, kept
B17: GB1-SF1 Pro BC (residues 468-594) (domain or fragment, UniProt Q15637 468-594, looked up)
chain: B7 chain
notes: SF1 (splicing factor 1) residues 468-594; pET24 vector with 6xHis, GB1 and TEV site as N-terminal cassette, not cleaved; source: E. coli BL21(DE3), purified (Ni-NTA, SEC); not shown: GB1, N-terminal, kept

biological target: T1, PRPF40A WW12 (tandem WW domains, residues 141-236) (human, UniProt O75400 141-236); assay: ITC; MicroCal PEAQ-ITC, 25 °C, 20 mM sodium phosphate pH 6.5, 100 mM NaCl; GB1-polyproline peptides in the cell, WW12 in the syringe (N sites >1: more than one WW tandem on one peptide); one-site model; apparent; settings: both partners purified
T1 construct: pETM11 vector (NcoI/KpnI); also called PRPF40A WW tandem; isolated WW domains; source: E. coli BL21(DE3), purified (Ni-NTA, TEV cleavage, reverse Ni-NTA, SEC); not shown: His6, N-terminal, cleaved

**Q.** Which Kd does the source give for B1 here?
**A.** The Kd was 10.5 µM and 11 µM and 10.8 µM.

biological target: T2, PRPF40A WW12 (tandem WW domains, residues 141-236) (human, UniProt O75400 141-236); assay: ITC; PRPF40A construct (WW12, N-ext-WW12 or its mutant) in the cell, GB1-SF1 or GB1-SF3A1 construct in the syringe (as shown in Supplementary Figures 16 and 21); 25 °C, 20 mM sodium phosphate pH 6.5, 100 mM NaCl; one-site binding model; at least duplicates; affinities apparent; settings: both partners purified
T2 construct: A few vector residues probably remain at the N-terminus after TEV cleavage (pETM11, NcoI site); 15N-labelled in the NMR experiments; also called PRPF40A WW tandem; WW12 wt; source: E. coli BL21(DE3), purified (Ni-NTA, TEV digestion, reverse Ni-NTA, SEC); not shown: His6, N-terminal, cleaved

**Q.** For B2, which “stoichiometry N” value is on record?
**A.** Its value is 0.39 ± 0.02 sites.

**Q.** For B3, which “stoichiometry N” value is on record?
**A.** The value was 0.28 ± 0.02 sites.

**Q.** With B4 as the binder, how does the “stoichiometry N” value read?
**A.** The value was 0.27 ± 0.07 sites.

**Q.** Which “stoichiometry N” value does the source give for B5 here?
**A.** The value was 0.28 ± 0.05 sites.

**Q.** What does the source list for B6?
**A.** Kd: 8.86 ± 1.38 µM; stoichiometry N: 0.56 ± 0.14 sites

**Q.** How did the “stoichiometry N” value turn out when B7 was run?
**A.** Its value is 0.53 ± 0.05 sites.

biological target: T1, PRPF40A WW12 (tandem WW domains, …); assay: ITC; MicroCal PEAQ-ITC, 25 °C, 20 mM sodium phosphate pH 6.5, 100 mM NaCl; GB1-tagged SF1/SF3A1 constructs in the syringe, WW12 in the cell (N sites <1: more than one WW tandem on one construct); one-site model; apparent; settings: both partners purified

**Q.** Which “stoichiometry N” value does the source give for B8 here?
**A.** The value was 0.42 and 0.38 and 0.36 and 0.39.

**Q.** With B9 as the binder, how does the Kd read?
**A.** Its Kd is 10.3 µM and 9.94 µM and 10.1 µM.

**Q.** What about the “stoichiometry N” value of the same binder?
**A.** Its value is 0.84 and 0.9 and 0.87.

**Q.** With B10 as the binder, how does the Kd read?
**A.** Its Kd is 2.1 µM and 1.94 µM and 2.02 µM.

**Q.** And the “stoichiometry N” value?
**A.** The value was 0.87 and 0.88.

**Q.** For B11, which “stoichiometry N” value is on record?
**A.** Its value is 0.3 and 0.26 and 0.28.

**Q.** For B12, which “stoichiometry N” value is on record?
**A.** Its value is 0.25 and 0.28 and 0.27.

**Q.** With B13 as the binder, how does the “stoichiometry N” value read?
**A.** Its value is 0.33 and 0.23 and 0.28.

**Q.** What does the source list for B14?
**A.** Kd: 15.7 µM and 16.1 µM and 20.6 µM; stoichiometry N: 1.3 and 1.15

**Q.** What does the source list for B15?
**A.** Kd: 24.8 µM and 25.4 µM and 25.1 µM; stoichiometry N: 0.97 and 1 and 0.99

**Q.** Which results are given for B16?
**A.** Kd: 8.1 µM and 9.6 µM and 8.86 µM; stoichiometry N: 0.7 and 0.42 and 0.56

**Q.** With B17 as the binder, how does the “stoichiometry N” value read?
**A.** Its value is 0.5 and 0.6 and 0.53.
